Where no end group is shown, it is not given here. The star is where a group is joined. 5FAM = O=C1OC2(c3ccc(O)cc3Oc3cc(O)ccc32)c2ccc(C(=O)*)cc21; Ahx = NCCCCCC(=O)O

One may read the Kd as a measure of binding affinity in units of concentration. The stoichiometry N is a count of units in the complex or per binding partner.

The target of series [1] is T1, 6xHis-SUMO-TRAF2 (residues 315-501) (human, UniProt Q12933 315-501).
T1 construct: also called SUMO-TRAF-C of TRAF2; TRAF2 TRAF-C domain
T1 sequence (looked up): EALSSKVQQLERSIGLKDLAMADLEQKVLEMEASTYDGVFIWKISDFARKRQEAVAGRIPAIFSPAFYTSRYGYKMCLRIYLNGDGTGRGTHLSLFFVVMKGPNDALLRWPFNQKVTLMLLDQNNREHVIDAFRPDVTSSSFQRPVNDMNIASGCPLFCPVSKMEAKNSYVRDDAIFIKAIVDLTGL
Kind of series: fluorescence polarisation. To be noted: both partners purified. On the technique in general: In fluorescence polarisation assays a small probe gives low polarisation when free and higher when bound to something large.

The target of series [2] is T2, 6xHis-SUMO-TRAF3 (residues 341-568) (human, UniProt Q13114 341-568).
T2 construct: also called SUMO-TRAF-C of TRAF3; TRAF3 TRAF-C domain
T2 sequence (looked up): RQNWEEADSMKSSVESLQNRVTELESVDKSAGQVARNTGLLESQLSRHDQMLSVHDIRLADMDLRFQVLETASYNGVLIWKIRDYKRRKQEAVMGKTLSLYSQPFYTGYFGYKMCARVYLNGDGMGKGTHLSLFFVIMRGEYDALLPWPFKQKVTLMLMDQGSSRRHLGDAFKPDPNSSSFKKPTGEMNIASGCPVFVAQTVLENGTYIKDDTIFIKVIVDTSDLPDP
Description: fluorescence polarisation. To be noted: both partners purified.

The series “crystal structure” deals with the molecule itself. Kind of series: crystal structure.
In series [3] the target is 16-aa ORF3a peptide (SARS-CoV-2 ORF3a residues 30-45) (SARS-CoV-2). Kind of series: crystal structure. To be noted: both partners purified.

B1: 5-FAM-Ahx-PIQAS peptide (5-aa ORF3a peptide, residues 36-40) (peptide)
peptide: {5FAM-Ahx}-PIQAS
notes: also called 5-FAM-ORF3a peptide; fluorescently labeled PIQAS peptide
Regarding B1, the values for the Kd in series [1] and in series [2] were 192 µM and 172 µM, respectively.

B2: TRAF2 TRAF-C domain (human TRAF2 residues 315-501), tag cleaved, for crystallization (domain or fragment, UniProt Q12933 315-501, looked up)
chain: T1 sequence (looked up)
For the molecule B2, the “stoichiometry N” value in “crystal structure” is 3. Also, the binding result in series [3] was “binds”.

For the origin of these results see article PMC10675646 (Viruses, 2023).
